Several values for one entry are separate records, joined by “and”; a condition that tells them apart may be missing. Equal values may be shown once. Read-outs that look alike come from different tables or passages of the source.
What was measured:
[1] = molecular target: human β NGF (R&D Systems catalog #256-GF/CF) (human) (UniProt P01138); experiment: cell-based or functional assay
recombinant canine β NGF [2] = molecular target: T1, recombinant canine β NGF (canine, UniProt Q29074 110-229 (pig entry)); experiment: SPR (Biacore T100), antibody captured on goat anti-canine IgG, canine NGF injected
T1 construct: also called canine NGF
T1 chain: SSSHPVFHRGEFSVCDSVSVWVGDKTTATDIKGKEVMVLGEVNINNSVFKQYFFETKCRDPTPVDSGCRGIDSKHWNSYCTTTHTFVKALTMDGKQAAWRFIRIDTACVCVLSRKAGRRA
Procedure: Purified mouse/canine chimeric antibodies and caninized antibodies were analyzed for affinity to canine NGF using a Biacore T100 instrument. Goat anti Canine IgG (Southern Biotech) was immobilized at 5000-10000 RU on a CM5 chip using an amine coupling procedure according to the manufacturer's instructions (Biacore). […] The association rate was monitored for 5 min and the dissociation rate was monitored for 10-20 min. The chip surface was regenerated using 50-75 ul 10 mM glycine pH 1.5 at a flow rate of 50-100 ul/min. Data was analyzed using Biaevaluation T100 software version 2.0.2, software, GE Healthcare Life Sciences (Piscataway, N.J.). Overall affinity parameters established for mouse/canine chimeric antibodies is summarized in Table 22 and for caninized antibodies in Table 23. […] The overall KDs of the mouse/canine anti-NGF mAbs range from about 1300 pM to 1.6 pM. […] The overall KDs of the caninized anti-NGF mAbs range from about 42 pM to 1.2 pM.

recombinant canine β NGF [3] = molecular target: T1, recombinant canine β NGF; experiment: cell-based or functional assay
recombinant canine β NGF [4] = molecular target: T1, recombinant canine β NGF; experiment: SPR (Biacore), mAb captured on goat anti-mouse IgG Fc, canine NGF injected; Expt 2
Procedure: (§1) A biomolecular protein interaction analysis was used to evaluate the binding kinetics of the interaction between the purified anti-NGF hybridoma antibodies and recombinant canine β NGF. The antibodies were captured using a goat anti-mouse IgG FC (10000 RU) surface which was directly immobilized to a CM5 chip using an amine coupling procedure according to the manufacturer's instructions (Biacore). A sample size of 5 μl of antibody at a concentration of 1 μg/ml was captured at 10 μl minute. Recombinant canine NGF was used as the antigen. Canine NGF was injected at 75 μl/min (concentration range: 5-0.039 nM) for mouse antibodies. The association rate was monitored for 3.3 minutes and the dissociation rate was monitored for 10 minutes. Aliquots of canine NGF were also simultaneously injected over a reference reaction CM surface to record any nonspecific binding background. The instrument sensitivity for on-rate is I×IO⁷, such that any on-rate that is faster than I×IO⁷ may not be accurately measured; the instrument sensitivity for off-rate is […], such that any off-rate that is slower than 1×10⁻⁶ may not be accurately measured. Therefore, an on-rate that is faster than 1×10⁷ is recorded as >1×10⁷ and an off-rate that is slower than 1×10⁻⁶ is recorded as <1×10⁻⁶.

recombinant canine β NGF [5] = molecular target: T1, recombinant canine β NGF; experiment: SPR (Biacore), mAb captured on goat anti-mouse IgG Fc, canine NGF injected; Average
Procedure: as §1

recombinant canine β NGF [6] = molecular target: T1, recombinant canine β NGF; experiment: cell-based or functional assay
recombinant canine β NGF [7] = molecular target: T1, recombinant canine β NGF; experiment: direct ELISA, canine NGF coated at 1 µg/ml, mAb at 0.4 µg/ml
Procedure: (§2) To determine if purified mouse anti-NGF mAbs bind to canine β NGF, ELISA plates were coated with 50 μl/well of canine NGF (Abbott Laboratories) at 1 μg/ml in PBS and incubated over night at 4° C. The plates were washed three times with PBS+Tween buffer. The plates were blocked with 200 μl/well of 2% milk in PBS for 1 hour at room temperature. The plates were washed three times as above. Purified antibodies were diluted to 0.4, 2, or 10 μg/ml. 50 μl of each concentration of purified antibody was added to the plates. The plates were incubated for 1 hour at room temperature. The plates were washed. 50 μl of a 5000-fold diluted goat anti-mouse IgG Fc-HRP (Thermo, catalog #31439) was added. The plates were incubated for 1 hour at room temperature. 50 μl of TMB (Invitrogen, catalog #00-2023) was added and the reaction was stopped using 2N H₂SO₄ (VWR, catalog # BDH3500-1). The absorbance at 450 nm was read on a Spectromax 2E plate reader (Molecular Devices). The results are shown in Table 9, and the numerical value indicates binding of mouse anti-NGF antibodies to canine β NGF.

recombinant canine β NGF [8] = molecular target: T1, recombinant canine β NGF; experiment: SPR (Biacore), mAb captured on goat anti-mouse IgG Fc, canine NGF injected; Expt 1
Procedure: as §1

recombinant canine β NGF [9] = molecular target: T1, recombinant canine β NGF; experiment: direct ELISA, canine NGF coated at 1 µg/ml, mAb at 10 µg/ml
Procedure: as §2

recombinant canine β NGF [10] = molecular target: T1, recombinant canine β NGF; experiment: cell-based or functional assay
recombinant canine β NGF [11] = molecular target: T1, recombinant canine β NGF; experiment: direct ELISA, canine NGF coated at 1 µg/ml, mAb at 2 µg/ml
Procedure: as §2

Chain of human β NGF (R&D Systems catalog #256-GF/CF) (human) (P01138 122-241 limits assumed): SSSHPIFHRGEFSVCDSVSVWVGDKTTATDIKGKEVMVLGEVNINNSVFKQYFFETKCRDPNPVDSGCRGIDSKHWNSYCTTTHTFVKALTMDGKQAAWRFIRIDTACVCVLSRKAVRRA

With Unrelated hybridoma (antibody) the PathHunter % of max signal, supernatant 1000-fold [1] was 136% and 144%, the PathHunter % of max signal, supernatant 5000-fold [1] was 126% and 132% and the PathHunter % of max signal, supernatant 10000-fold [1] was 138% and 137%.

B1: Mu73 Canine IgG1/k Chimera (antibody, V domains shown)
VH: QVQLQQPGAELVKPGASVKLSCKASGYTFTNYWMHWVKQRPGQGLEWIGRIDPYGGGTKHNEKFKRKATVTADKSSSTAYILLSSLTSEDSAVYYCTRSGYDYYFDVWGTGTTVTVSS
VL: DIQMTQSPASLSASVGETVTVTCRASENIYSFLAWHQQKQGKSPQLLVYNANTLAEGVPSRFSGSGSGTQFSLKINSLQPEDFGSYYCQHHFGTPFTFGSGTKLEIKR
notes: also called PR-1290654; lot 1785658
For B1, the Kd (recombinant canine β NGF [2]) was 14 pM, the koff (recombinant canine β NGF [2]) was 9e-05 s⁻¹ and the “IC50, canine NGF-induced TF-1 cell proliferation (70 pM canine NGF)” value (“IC50 … (70 pM canine NGF)” below) (recombinant canine β NGF [3]) was 8 pM.

B2: PR-1254981 (antibody, mouse IgG1, V domains shown)
VH: EVQLVESGGGAVKPGGSLTLSCAASGFTFSNHYMYWVRQTPEKRLEWVASISDGGAYTFYPDTVKGRFTISRDNVNNNLYLQMRHLKSEDTAMYYCTREESANNGFAFWGQGTLVTVSA
VL: DVLMTQTPLSLPVSLGDQASISCRSSQSILHSNGNTYLEWYLQKPGQSPNLLIYRVSNRFSGVPDRFSGSGSGTDFTLKISRVEAEDLGVYYCFQGAHVPFTFGSGTKLEIKR
notes: also called 14A9; ML130-14A9.5B12
B2 gave a Kd (recombinant canine β NGF [4]) of 18.7 pM, a koff (recombinant canine β NGF [4]) of 0.00014 s⁻¹ and a kon (recombinant canine β NGF [4]) of 7.48e+06 M⁻¹ s⁻¹. For the same molecule, the Kd (recombinant canine β NGF [5]) was 16.7 pM, the koff (recombinant canine β NGF [5]) was 0.000134 s⁻¹ and the kon (recombinant canine β NGF [5]) was 8.08e+06 M⁻¹ s⁻¹. For the same molecule, the “IC50 … (70 pM canine NGF)” value (recombinant canine β NGF [6]) was 46 pM, the “absorbance at 450 nm” value (recombinant canine β NGF [7]) was 0.229 A450 and the Kd (recombinant canine β NGF [8]) was 14.7 pM. For the same molecule, the koff (recombinant canine β NGF [8]) was 0.000127 s⁻¹, the kon (recombinant canine β NGF [8]) was 8.67e+06 M⁻¹ s⁻¹ and the “absorbance at 450 nm” value (recombinant canine β NGF [9]) was 0.61 A450. For the same molecule, the “PathHunter IC50 (441 pM canine NGF)” value (recombinant canine β NGF [10]) was 0.279 nM, the “SureFire pERK IC50 (128 pM canine β NGF)” value (recombinant canine β NGF [10]) was 21.4 pM and the “absorbance at 450 nm” value (recombinant canine β NGF [11]) was 0.458 A450.

B3: Mu81 Canine IgG1/k Chimera (antibody, V domains shown)
VH: EVQLVESGGGAVKPGGSLTLSCAASGFTFSNHYMYWVRQTPEKRLEWVASISDGGAYTFYPDTVKGRFTISRDNVNNNLYLQMRHLKSEDTAMYYCTREESANNGFAFWGQGTLVTVSA
VL: DVLMTQTPLSLPVSLGDQASISCRSSQSILHSNGNTYLEWYLQKPGQSPNLLIYRVSNRFSGVPDRFSGSGSGTDFTLKISRVEAEDLGVYYCFQGAHVPFTFGSGTKLEIKR
notes: also called PR-1290657; lot 1778832
B3 was tested, and the Kd (recombinant canine β NGF [2]) was 82 pM, the koff (recombinant canine β NGF [2]) was 0.00035 s⁻¹ and the “IC50 … (70 pM canine NGF)” value (recombinant canine β NGF [3]) was 12 pM.
